Laboratory results taken from patent publication US20040018971A1 (published 2004).
Like-named read-outs stand apart in the source and are kept apart here.

How the values were obtained:
HLA-DRB1*0101 [1] = target: T1, HLA-DRB1*0101 (human); experiment: inhibition of 125I probe peptide binding to purified HLA-DR, gel filtration
T1 construct: Purified HLA molecule; also called DR1

HLA-DRB1*0401 [2] = target: T2, HLA-DRB1*0401 (human); experiment: as above
T2 construct: Purified HLA molecule; also called DR4w4

HLA-DRB1*1501 = target: T3, HLA-DRB1*1501 (human); experiment: as above
T3 construct: Purified HLA molecule; also called DR2w2β1

HLA-DRB5*0101 = target: T4, HLA-DRB5*0101 (human); experiment: as above
T4 construct: Purified HLA molecule; also called DR2w2β2

HLA-DRB1*1302 = target: T5, HLA-DRB1*1302 (human); experiment: as above
T5 construct: Purified HLA molecule; also called DR6w19

HLA-DRB1*0802 = target: T6, HLA-DRB1*0802 (human); experiment: as above
T6 construct: Purified HLA molecule; also called DR8w2

HLA-A*0201 = target: T7, HLA-A*0201 (human); experiment: inhibition of 125I-labeled probe peptide binding to purified HLA, gel filtration; relative to standard peptide
T7 construct: the construct is not described; also called HLA-A2.1

HLA-A*0301 = HLA-A*0301 (human); experiment: competition with 125I-labelled standard peptide for purified HLA; gel filtration
HLA-A*3101 = HLA-A*3101 (human); experiment: as above
HLA-A*3301 = HLA-A*3301 (human); experiment: as above
HLA-A*6801 = HLA-A*6801 (human); experiment: as above
HLA-DRB1*0101 [3] = target: T8, HLA-DRB1*0101 (human); experiment: competition with 125I probe peptide, purified HLA
T8 construct: also called DR1

HLA-DRB1*0701 [4] = target: T9, HLA-DRB1*0701 (human); experiment: competition with 125I probe peptide, purified HLA
T9 construct: also called DR7

HLA-DRB1*0401 [5] = target: T10, HLA-DRB1*0401 (human); experiment: competition with 125I probe peptide, purified HLA
T10 construct: also called DR4w4

HLA-DRB1*0301 [6] = target: T11, HLA-DRB1*0301 (human); experiment: competition with 125I-labelled standard peptide, purified HLA-DR, gel filtration
T11 construct: purified MHC class II molecule; also called DR3

HLA-DRB1*0301 [7] = target: T11, HLA-DRB1*0301; experiment: as above; remark: listed apart in the source
[8] = target: T12, HLA-A*0301 (purified HLA class I molecule) (human); experiment: inhibition of 125I probe peptide binding to purified HLA; ratio to standard peptide
T12 construct: also called A3

[9] = target: HLA-A*1101 (purified HLA class I molecule) (human); experiment: as above
[10] = target: HLA-A*3101 (purified HLA class I molecule) (human); experiment: as above
[11] = target: HLA-A*6801 (purified HLA class I molecule) (human); experiment: as above
[12] = target: HLA-A*3301 (purified HLA class I molecule) (human); experiment: inhibition of 125I probe peptide binding to purified HLA; ratio to standard peptide; minus sign not explained
HLA-DRB1*0701 [13] = target: T13, HLA-DRB1*0701 (human); experiment: inhibition of 125I probe peptide binding to purified HLA-DR, gel filtration
T13 construct: Purified HLA molecule; also called DR7

HLA-DR3 = HLA-DR3 (human); experiment: competitive inhibition of 125I-labeled probe peptide binding to purified HLA-DR3

B1: Her2/neu.769 (peptide)
peptide: DEAYVMAGVGSPYVS
notes: Synthetic peptide
IC50 (HLA-DRB1*0101 [1]): 100 nM | IC50 (HLA-DRB1*0401 [2]): 196 nM | IC50 (HLA-DRB1*1501): 3140 nM | IC50 (HLA-DRB5*0101): 833 nM | IC50 (HLA-DRB1*1302): 1750 nM | IC50 (HLA-DRB1*0802): 860 nM

B2: HER2/neu peptide, position 781, 10 amino acids (peptide)
peptide: YVSRLLGICL
notes: Synthetic peptide
relative binding ratio (HLA-A*0201): 0.0004 ratio (IC50 of standard peptide / IC50 of test peptide)

B3: Her2/neu.852.R9 (peptide)
peptide: LVKSPNHVR
IC50 (HLA-A*0301): 7860 nM | IC50 (HLA-A*3101): 198 nM | IC50 (HLA-A*3301): 107 nM | IC50 (HLA-A*6801): 50 nM

B4: Her2/neu.105 (peptide)
peptide: TQLFEDNYALAVLDN
IC50 (HLA-DRB1*0101 [3]): 94 nM | IC50 (HLA-DRB1*0701 [4]): 1560 nM

B5: Her2/neu.1028 (peptide)
peptide: QGFFCPDPAPGAGGM
IC50 (HLA-DRB1*0401 [5]): 1960 nM

B6: Her2/neu.70 (peptide)
peptide: SLSFLQDIQEVQGYV
IC50 (HLA-DRB1*0301 [6]): 5770 nM

B7: Her2/neu.867 (peptide)
peptide: ARLLDIDETEYHADG
IC50 (HLA-DRB1*0301 [6]): 968 nM | IC50 (HLA-DRB1*0301 [7]): 968 nM

B8: Her2/neu.1005 (peptide)
peptide: YRSLLEDDDMGDLVD
IC50 (HLA-DRB1*0301 [6]): 4760 nM

B9: HER2/neu peptide, position 727, 10 amino acids (peptide)
peptide: GSGAFGTVYK
notes: also called Her2/neu.727 (10-mer)
relative binding ratio [8]: 0.066 ratio (IC50 standard / IC50 test) | relative binding ratio [9]: 0.13 ratio (IC50 standard / IC50 test) | relative binding ratio [10]: 0.0014 ratio (IC50 standard / IC50 test) | relative binding ratio [11]: 0.0012 ratio (IC50 standard / IC50 test) | relative binding ratio [12]: -0.0013 ratio (IC50 standard / IC50 test)

B10: Her2/neu.769 (peptide)
peptide: DEAYVMAGVGSPYVS
IC50 (HLA-DRB1*0101 [3]): 100 nM | IC50 (HLA-DRB1*0401 [5]): 196 nM

B11: Her2/neu.943 (peptide)
peptide: QPPICTIDVYMIMVK
notes: Synthetic peptide
IC50 (HLA-DRB1*0701 [13]): 250 nM

B12: Her2/neu.867 (peptide)
peptide: ARLLDIDETEYHADG
IC50 (HLA-DR3): < 1000 nM

B13: HER2/neu peptide, position 83, 9 amino acids (peptide)
peptide: YVLIAHNQV
notes: Synthetic peptide
relative binding ratio (HLA-A*0201): 0.0005 ratio (IC50 of standard peptide / IC50 of test peptide)
